The results in this text go back to patent US20250289867A1.

The target of the assay is MERS spike on pseudotyped lentiviral particles (MERS coronavirus) (UniProt K9N5Q8). Put plainly: cell-based or functional assay.

Bounds are passed on as bounds.

Chain of UniProt K9N5Q8 (K9N5Q8 18-1353): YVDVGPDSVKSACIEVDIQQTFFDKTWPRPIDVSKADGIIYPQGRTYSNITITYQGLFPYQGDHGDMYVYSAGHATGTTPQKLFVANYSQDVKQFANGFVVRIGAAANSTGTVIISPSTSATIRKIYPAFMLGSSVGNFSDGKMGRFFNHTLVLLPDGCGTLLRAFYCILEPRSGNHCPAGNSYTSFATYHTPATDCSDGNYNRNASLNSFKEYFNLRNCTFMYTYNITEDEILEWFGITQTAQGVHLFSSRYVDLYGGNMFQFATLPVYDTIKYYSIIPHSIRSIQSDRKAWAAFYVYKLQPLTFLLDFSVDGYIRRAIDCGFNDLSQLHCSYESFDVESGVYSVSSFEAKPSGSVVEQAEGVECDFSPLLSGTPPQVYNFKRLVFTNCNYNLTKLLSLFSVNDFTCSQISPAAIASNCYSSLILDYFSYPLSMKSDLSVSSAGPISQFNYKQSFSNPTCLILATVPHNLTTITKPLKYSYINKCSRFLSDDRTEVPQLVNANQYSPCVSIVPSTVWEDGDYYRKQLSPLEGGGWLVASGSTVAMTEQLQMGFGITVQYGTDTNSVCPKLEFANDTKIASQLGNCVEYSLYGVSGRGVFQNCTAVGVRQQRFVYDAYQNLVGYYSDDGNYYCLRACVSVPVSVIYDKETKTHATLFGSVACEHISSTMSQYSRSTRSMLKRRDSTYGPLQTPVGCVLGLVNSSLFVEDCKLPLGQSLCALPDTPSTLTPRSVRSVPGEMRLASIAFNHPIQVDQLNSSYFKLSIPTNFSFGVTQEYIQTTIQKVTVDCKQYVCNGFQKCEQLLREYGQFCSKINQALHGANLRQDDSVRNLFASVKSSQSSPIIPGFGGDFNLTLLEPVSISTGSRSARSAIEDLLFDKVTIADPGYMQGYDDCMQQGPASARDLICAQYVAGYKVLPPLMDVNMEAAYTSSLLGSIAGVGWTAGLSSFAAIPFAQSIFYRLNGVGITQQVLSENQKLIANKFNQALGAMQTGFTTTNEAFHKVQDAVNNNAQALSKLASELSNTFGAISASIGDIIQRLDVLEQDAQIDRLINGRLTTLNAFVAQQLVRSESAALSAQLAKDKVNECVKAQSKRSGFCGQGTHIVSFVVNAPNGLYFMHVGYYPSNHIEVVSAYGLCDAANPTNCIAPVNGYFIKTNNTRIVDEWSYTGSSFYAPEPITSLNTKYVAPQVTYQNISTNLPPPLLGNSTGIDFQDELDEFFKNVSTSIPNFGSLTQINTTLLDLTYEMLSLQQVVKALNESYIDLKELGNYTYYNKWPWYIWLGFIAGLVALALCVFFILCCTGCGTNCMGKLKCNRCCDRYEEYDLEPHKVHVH

With “DPP4 recombinant protein (from UniProt P27487 39-766) (receptor)”, the IC50, pseudovirus microneutralization assay, H1650 target cells is more than 48000 pM. Consider “NA75-DPP4, displayed on lentiviral-based multivalent particles (from UniProt P27487 30-766) (receptor)”, for which the IC50, pseudovirus neutralization assay, H1650 target cells was found to be 0.87 pM.
